According to IntAct's records for PubMed 19279667:

B1: Integrin beta-3 (Homo sapiens), P05106 (parent)
chain: MRARPRPRPLWATVLALGALAGVGVGGPNICTTRGVSSCQQCLAVSPMCAWCSDEALPLGSPRCDLKENLLKDNCAPESIEFPVSEARVLEDRPLSDKGSGDSSQVTQVSPQRIALRLRPDDSKNFSIQVRQVEDYPVDIYYLMDLSYSMKDDLWSIQNLGTKLATQMRKLTSNLRIGFGAFVDKPVSPYMYISPPEALENPCYDMKTTCLPMFGYKHVLTLTDQVTRFNEEVKKQSVSRNRDAPEGGFDAIMQATVCDEKIGWRNDASHLLVFTTDAKTHIALDGRLAGIVQPNDGQCHVGSDNHYSASTTMDYPSLGLMTEKLSQKNINLIFAVTENVVNLYQNYSELIPGTTVGVLSMDSSNVLQLIVDAYGKIRSKVELEVRDLPEELSLSFNATCLNNEVIPGLKSCMGLKIGDTVSFSIEAKVRGCPQEKEKSFTIKPVGFKDSLIVQVTFDCDCACQAQAEPNSHRCNNGNGTFECGVCRCGPGWLGSQCECSEEDYRPSQQDECSPREGQPVCSQRGECLCGQCVCHSSDFGKITGKYCECDDFSCVRYKGEMCSGHGQCSCGDCLCDSDWTGYYCNCTTRTDTCMSSNGLLCSGRGKCECGSCVCIQPGSYGDTCEKCPTCPDACTFKKECVECKKFDRGALHDENTCNRYCRDEIESVKELKDTGKDAVNCTYKNEDDCVVRFQYYEDSSGKSILYVVEEPECPKGPDILVVLLSVMGAILLIGLAALLIWKLLITIHDRKEFAKFEEERARAKWDTANNPLYKEATSTFTNITYRGT

Variants of: B1
Conditions: with ita2b_human ITGA2B

Which “effect of a mutation on the interaction” value does the source give for I719A here?
Its value is “decreasing interaction”.

Variants of: B1
Conditions: with ita2b_human ITGA2B
Remark: another data set of the same source

D749A was tested. Which “effect of a mutation on the interaction” value did it give?
The value was “decreasing interaction”.

Variants of: B1
Conditions: with ita2b_human ITGA2B
Remark: another data set of the same source

How did the “effect of a mutation on the interaction” value turn out when L738A was run?
The value was “decreasing interaction”.

Variants of: B1
Conditions: with ita2b_human ITGA2B
Remark: another data set of the same source

How did the “effect of a mutation on the interaction” value turn out when W741Y was run?
The value was “decreasing interaction”.
